# Source: publication PMC10786891, “Massively parallel profiling of RNA-targeting CRISPR-Cas13d”
# T1: EsCas13d, nuclease-dead (Eubacterium siraeum, UniProt B0MS50, R295A;H300A;R849A;H854A)
# T1 sequence: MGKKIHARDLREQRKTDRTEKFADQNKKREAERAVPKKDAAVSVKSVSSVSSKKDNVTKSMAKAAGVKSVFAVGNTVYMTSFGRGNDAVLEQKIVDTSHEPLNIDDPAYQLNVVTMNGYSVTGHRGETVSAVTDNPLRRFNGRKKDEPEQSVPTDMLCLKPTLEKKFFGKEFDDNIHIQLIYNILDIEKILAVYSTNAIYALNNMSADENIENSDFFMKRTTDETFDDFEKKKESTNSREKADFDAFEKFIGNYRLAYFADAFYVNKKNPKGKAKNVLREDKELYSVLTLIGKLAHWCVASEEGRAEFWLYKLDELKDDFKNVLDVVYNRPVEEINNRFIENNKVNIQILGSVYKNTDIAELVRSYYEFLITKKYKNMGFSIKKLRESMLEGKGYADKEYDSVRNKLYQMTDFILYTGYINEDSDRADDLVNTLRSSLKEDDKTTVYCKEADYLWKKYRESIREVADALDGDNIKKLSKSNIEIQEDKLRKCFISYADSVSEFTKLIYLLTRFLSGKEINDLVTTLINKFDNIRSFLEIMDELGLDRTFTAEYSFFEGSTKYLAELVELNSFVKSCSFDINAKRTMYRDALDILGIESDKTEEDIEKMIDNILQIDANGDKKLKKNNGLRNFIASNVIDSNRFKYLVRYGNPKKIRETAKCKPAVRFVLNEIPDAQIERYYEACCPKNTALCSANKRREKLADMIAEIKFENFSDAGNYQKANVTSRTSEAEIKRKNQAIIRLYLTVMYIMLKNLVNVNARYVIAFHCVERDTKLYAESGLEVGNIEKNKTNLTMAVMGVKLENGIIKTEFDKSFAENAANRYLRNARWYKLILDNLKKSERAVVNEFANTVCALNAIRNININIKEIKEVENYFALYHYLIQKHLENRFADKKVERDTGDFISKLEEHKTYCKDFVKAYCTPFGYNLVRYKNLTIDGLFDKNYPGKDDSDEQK
# B1: target 1 complement block 1-10 (mixed)
# RNA 1: CACCCGUGCAAAAAUGCAGGGGUCUAAAACUGAGCGGAUAACCUCUCUAUGG
# RNA 2: GGGAAUGGAUCCACAUCUACGAAUUCGUACCAUAGAGAGGUAUAGGCGAGUCCGAGAUCGGAAGAGCACACGU
# B2: target 1 G13A,A18U (mixed)
# RNA 1: CACCCGUGCAAAAAUGCAGGGGUCUAAAACUGAGCGGAUAACCUCUCUAUGG
# RNA 2: GGGAAUGGAUCCACAUCUACGAAUUCGUACCAUUGAGAAGUUAUCCGCUCACCGAGAUCGGAAGAGCACACGU
# B3: target 1 G13A,A16U (mixed)
# RNA 1: CACCCGUGCAAAAAUGCAGGGGUCUAAAACUGAGCGGAUAACCUCUCUAUGG
# RNA 2: GGGAAUGGAUCCACAUCUACGAAUUCGUACCAUAGUGAAGUUAUCCGCUCACCGAGAUCGGAAGAGCACACGU
# B4: target 1 insG 3' of 22,insA 3' of 17 (mixed)
# RNA 1: CACCCGUGCAAAAAUGCAGGGGUCUAAAACUGAGCGGAUAACCUCUCUAUGG
# RNA 2: GGGAAUGGAUCCACAUCUACGAAUUCGUACGCAUAGAAGAGGUUAUCCGCUCACCGAGAUCGGAAGAGCACACGU
# B5: target 1 insG 3' of 18,insA 3' of 6 (mixed)
# RNA 1: CACCCGUGCAAAAAUGCAGGGGUCUAAAACUGAGCGGAUAACCUCUCUAUGG
# RNA 2: GGGAAUGGAUCCACAUCUACGAAUUCGUACCAUAGGAGAGGUUAUCCAGCUCACCGAGAUCGGAAGAGCACACGU
# B6: target 1 U19A,A20G (mixed)
# RNA 1: CACCCGUGCAAAAAUGCAGGGGUCUAAAACUGAGCGGAUAACCUCUCUAUGG
# RNA 2: GGGAAUGGAUCCACAUCUACGAAUUCGUACCGAAGAGAGGUUAUCCGCUCACCGAGAUCGGAAGAGCACACGU
# B7: target 1 U10A,G15A (mixed)
# RNA 1: CACCCGUGCAAAAAUGCAGGGGUCUAAAACUGAGCGGAUAACCUCUCUAUGG
# RNA 2: GGGAAUGGAUCCACAUCUACGAAUUCGUACCAUAGAAAGGUAAUCCGCUCACCGAGAUCGGAAGAGCACACGU
# B8: target 1 G5A (mixed)
# RNA 1: CACCCGUGCAAAAAUGCAGGGGUCUAAAACUGAGCGGAUAACCUCUCUAUGG
# RNA 2: GGGAAUGGAUCCACAUCUACGAAUUCGUACCAUAGAGAGGUUAUCCACUCACCGAGAUCGGAAGAGCACACGU
# B9: target 1 del16 (mixed)
# RNA 1: CACCCGUGCAAAAAUGCAGGGGUCUAAAACUGAGCGGAUAACCUCUCUAUGG
# RNA 2: GGGAAUGGAUCCACAUCUACGAAUUCGUACCAUAGGAGGUUAUCCGCUCACCGAGAUCGGAAGAGCACACGU
# B10: target 1 insG 3' of 6,insG 3' of 2 (mixed)
# RNA 1: CACCCGUGCAAAAAUGCAGGGGUCUAAAACUGAGCGGAUAACCUCUCUAUGG
# RNA 2: GGGAAUGGAUCCACAUCUACGAAUUCGUACCAUAGAGAGGUUAUCCGGCUCGACCGAGAUCGGAAGAGCACACGU
# B11: target 1 C6A,U10A (mixed)
# RNA 1: CACCCGUGCAAAAAUGCAGGGGUCUAAAACUGAGCGGAUAACCUCUCUAUGG
# RNA 2: GGGAAUGGAUCCACAUCUACGAAUUCGUACCAUAGAGAGGUAAUCAGCUCACCGAGAUCGGAAGAGCACACGU
# B12: target 1 C7A,A20G (mixed)
# RNA 1: CACCCGUGCAAAAAUGCAGGGGUCUAAAACUGAGCGGAUAACCUCUCUAUGG
# RNA 2: GGGAAUGGAUCCACAUCUACGAAUUCGUACCGUAGAGAGGUUAUACGCUCACCGAGAUCGGAAGAGCACACGU
# B13: target 1 G15U,A16C (mixed)
# RNA 1: CACCCGUGCAAAAAUGCAGGGGUCUAAAACUGAGCGGAUAACCUCUCUAUGG
# RNA 2: GGGAAUGGAUCCACAUCUACGAAUUCGUACCAUAGCUAGGUUAUCCGCUCACCGAGAUCGGAAGAGCACACGU
# Target: T1, EsCas13d, nuclease-dead
# Test: crRNA (strand 1, pre-loaded); Mg2+; 40 mM Tris-HCl pH 7.5, 150 mM NaCl, 6 mM MgCl2, 1 mM DTT, 0.1% Tween-20, 0.2 mg/ml BSA; 25 C; 10 min per concentration, then washed
# Conditions: tags: His6-TwinStrep-SUMO cleaved; N-terminal SNAP kept (SNAP-Surface 488); label: 3' end held by stalled T7 RNA polymerase
row,Binder,Kd
1,B1,16.6 ± 0.6 nM
2,B2,22.5 ± 2 nM
3,B3,43 ± 6 nM
4,B4,71 ± 24 nM
5,B5,73 ± 25 nM
6,B6,56 ± 7 nM
7,B7,31 ± 3 nM
8,B8,51 ± 8 nM
9,B9,46 ± 4 nM
10,B10,10.4 ± 1.1 nM
11,B11,7.7 ± 0.4 nM
12,B12,45 ± 13 nM
13,B13,83 ± 16 nM
